Target: T1, Candida albicans Ino4 (C. albicans, UniProt A0A1D8PH18 1-130)
T1 sequence: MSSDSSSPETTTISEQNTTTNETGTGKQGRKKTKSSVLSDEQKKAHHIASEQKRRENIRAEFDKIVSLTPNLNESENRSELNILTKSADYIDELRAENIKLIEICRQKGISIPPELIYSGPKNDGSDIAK
Test: two-hybrid

B1: Candida albicans Ino2 (natural protein)
chain: MSSTVTQTMNNNPTEKVTFTASNSQADFDLLDIFSNDMDFEQAYDMYNNLQEKNAMGSFEQLQKVQALNQQYVSNLQPPSSAQFPDQFAYERAQILNGEYNKQSGLMNDATNKNYSFNDDTFDQFFTNTESNALEKFLDNLANPVASVNPLQFYNNTRTSVPDEDVDLSFELHTMKVPQQFKPRSQSLEHNPPLQQKVRFTEEEHAALKQELTEAFAHPCTQLPSPSTTEYKPKPTTPKVVKQFVTPPNSGDESRKRNSDIESDESEEETTPTTKKRKRTSSKPLLSVEQKRLNHSHSEQKRRQLCKFAYQRCLELIIDLDAFNKLPELNESERKSKRARVNKDGLPNLSKHNALIRISNEMILIKSMNDSLKKLIENR
galactosidase activity, fold of the background activity: 2.5 fold
